Measured values reported in patent publication US20220119793A1.

Biological target: α-thrombin
Test: cell-based or functional assay

**Q.** How did the maximal second-order rate constant (k2) of thrombin inhibition, at ~20 µg/mL heparin turn out when “human heparin cofactor II 60-sTyr-73-sTyr (from UniProt P05546 20-499)” was run?
**A.** 5e+06 M⁻¹ s⁻¹
